As usually defined, the EC50 is the concentration at which the effect is half-maximal. The low end stands for an effect from little substance, the high end for a need for much substance.

Results on 14 molecules are retold here after patent US20100260668A1 (published 2010).

One assay deals with T1, VEGF 1-165 aa (UniProt P15692 27-191).
T1 construct: Bought antigen coated on the ELISA plate
Description: direct bind ELISA (C-term VD).

Another assay addresses T2, HGF-His tag (UniProt P14210 32-728).
T2 construct: Bought antigen coated on the ELISA plate; not shown: His tag
Description: direct bind ELISA (N-term VD).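 Further: ELISA screen of antibodies for binding to plate-immobilized target antigen.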

In assay [1] the target is T3, PlGF (UniProt P49763-2 21-149, limits assumed).
T3 construct: bought antigen coated on the ELISA plate; also called Placental GF
T3 sequence (looked up): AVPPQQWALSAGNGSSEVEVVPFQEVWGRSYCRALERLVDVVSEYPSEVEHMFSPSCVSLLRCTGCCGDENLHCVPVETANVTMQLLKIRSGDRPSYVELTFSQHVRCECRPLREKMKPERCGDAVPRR
Briefly: direct bind ELISA, N-terminal VD. A general note: ELISA stands for enzyme-linked immunosorbent assay.

Assay [2] concerns the target T3, PlGF. Description: direct bind ELISA, C-terminal VD.
Description: (§1) Enzyme Linked Immunosorbent Assays to screen for antibodies that bind a desired target antigen were performed as follows. […] Plates were washed four times with PBS containing 0.02% Tween 20. Plates were blocked by the addition of 300 μL/well blocking solution (non-fat dry milk powder, various retail suppliers, diluted to 2% in PBS) for ½ hour at room temperature. Plates were washed four times after blocking with PBS containing 0.02% Tween 20.
(§2) Plates were washed 4 times with PBS containing 0.02% Tween 20.

T1 sequence (P15692 other isoform, or with tags, fused parts or gaps limits assumed): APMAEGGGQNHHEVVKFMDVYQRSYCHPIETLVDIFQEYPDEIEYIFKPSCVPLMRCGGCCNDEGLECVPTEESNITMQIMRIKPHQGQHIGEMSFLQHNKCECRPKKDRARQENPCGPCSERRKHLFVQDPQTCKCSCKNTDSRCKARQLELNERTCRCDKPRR
T2 sequence (P14210 32-728 limits assumed): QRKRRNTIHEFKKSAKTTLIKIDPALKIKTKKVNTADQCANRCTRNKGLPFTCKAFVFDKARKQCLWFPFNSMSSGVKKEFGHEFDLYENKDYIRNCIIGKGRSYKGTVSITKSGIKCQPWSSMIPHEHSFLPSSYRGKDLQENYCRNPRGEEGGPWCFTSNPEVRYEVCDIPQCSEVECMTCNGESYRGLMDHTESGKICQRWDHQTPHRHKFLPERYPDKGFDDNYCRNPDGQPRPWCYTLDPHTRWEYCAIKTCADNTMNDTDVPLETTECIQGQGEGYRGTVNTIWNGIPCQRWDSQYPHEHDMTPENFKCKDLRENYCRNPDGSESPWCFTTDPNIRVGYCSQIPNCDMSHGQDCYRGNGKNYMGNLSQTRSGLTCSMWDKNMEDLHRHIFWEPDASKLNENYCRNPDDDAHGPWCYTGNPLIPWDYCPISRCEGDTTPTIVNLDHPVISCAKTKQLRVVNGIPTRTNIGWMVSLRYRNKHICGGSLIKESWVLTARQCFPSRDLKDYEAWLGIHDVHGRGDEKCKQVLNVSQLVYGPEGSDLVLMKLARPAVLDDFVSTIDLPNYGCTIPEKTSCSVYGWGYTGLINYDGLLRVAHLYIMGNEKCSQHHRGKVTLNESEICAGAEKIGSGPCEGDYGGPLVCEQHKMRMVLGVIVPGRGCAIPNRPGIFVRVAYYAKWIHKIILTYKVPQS
Description for HGF-His tag: as §1
(§3) Alternatively, one hundred microliters per well of 10 μg/ml of Histidine (His) tagged desired target antigen (R&D Systems, Minneapolis, Minn.) was added to ELISA plates coated with monoclonal mouse anti-polyHistidine antibody as described above and incubated for 1 hour at room temperature. Wells were washed four times with PBS containing 0.02% Tween 20.
as §2
Description for VEGF 1-165 aa: as §1, §3, §2

B1: DVD675 (bispecific antibody, human IgG1, kappa)
heavy: not shown
light: DIQMTQSPSSLSASVGDRVTITCKASENVVSYVSWYQQKPGKAPKLLIYGASNRNTGVPSRFSGSGSGTDFTLTISSLQPEDFATYYCGQSYNYPYTFGQGTKLEIKRTVAAPDIQMTQSPSSLSASVGDRVTITCRASQVIRRSLAWYQQKPGKAPKLLIYAASNLASGVPSRFSGSGSGTDFTLTISSLQPEDFATYYCQQSNTSPLTFGQGTKVEIKRTVAAPSVFIFPPSDEQLKSGTASVVCLLNNFYPREAKVQWKVDNALQSGNSQESVTEQDSKDSTYSLSSTLTLSKADYEKHKVYACEVTHQGLSSPVTKSFNRGEC
notes: DVD-Ig; N-term VD AB079 (HGF), C-term VD AB071 (VEGF); HC linker long, LC linker short; vectors V1/V2
In the case of B1, the EC50 with VEGF 1-165 aa worked out at 5770 nM; with HGF-His tag, 0.48 nM.

B2: DVD567 (bispecific antibody, human IgG1, kappa)
heavy: not shown
light: AIQMTQSSSSFSVSLGDRVTITCKASEDIYNRFAWYQQKPGNAPRLLISGAASLEAGVPSRFSGSGSGQDYTLSITSLQTEDVATYYCQQYWSTPWTFGGGTKLEIKRTVAAPSVFIFPPDIQMTQSPSSLSASVGDRVTITCRASQDVSTAVAWYQQKPGKAPKLLIYSASFLYSGVPSRFSGSGSGTDFTLTISSLQPEDFATYYCQQSYTTPPTFGQGTKVEIKRTVAAPSVFIFPPSDEQLKSGTASVVCLLNNFYPREAKVQWKVDNALQSGNSQESVTEQDSKDSTYSLSSTLTLSKADYEKHKVYACEVTHQGLSSPVTKSFNRGEC
notes: HC linker short, LC linker long; also called DVD-Ig DVD567
B2 displayed an EC50 in the assay with PlGF [1] of 340 nM.

B3: DVD667 (bispecific antibody, human IgG1, kappa)
heavy: not shown
light: DIQMTQSPSSLSASVGDRVTITCKASENVVSYVSWYQQKPGKAPKLLIYGASNRNTGVPSRFSGSGSGTDFTLTISSLQPEDFATYYCGQSYNYPYTFGQGTKLEIKRTVAAPSVFIFPPDIQMTQSPSSLSASVGDRVTITCRASQDVSTAVAWYQQKPGKAPKLLIYSASFLYSGVPSRFSGSGSGTDFTLTISSLQPEDFATYYCQQSYTTPPTFGQGTKVEIKRTVAAPSVFIFPPSDEQLKSGTASVVCLLNNFYPREAKVQWKVDNALQSGNSQESVTEQDSKDSTYSLSSTLTLSKADYEKHKVYACEVTHQGLSSPVTKSFNRGEC
notes: DVD-Ig; HC linker long, LC linker long; vectors V1/V2
For B3, the EC50 in the assay with VEGF 1-165 aa came to 51.3 nM; with HGF-His tag, 0.33 nM.

B4: DVD679 (bispecific antibody, human IgG1, kappa)
heavy: not shown
light: B3 light
notes: DVD-Ig; HC linker short, LC linker long; vectors V1/V2
On to B4, for which the figures for the EC50 in the assay with VEGF 1-165 aa and with HGF-His tag were 92.4 nM and 0.32 nM, respectively.

B5: DVD711 (bispecific antibody, human IgG1, kappa)
heavy: not shown
light: DIQMTQSPSSVSASVGDRVTITCRASQGISSWLAWYQQKPGKAPNLLIYEASSLQSGVPSRFGGSGSGTDFTLTISSLQPEDFATYYCQQANGFPWTFGQGTKVEIKRTVAAPDIQMTQSPSSLSASVGDRVTITCRASQVIRRSLAWYQQKPGKAPKLLIYAASNLASGVPSRFSGSGSGTDFTLTISSLQPEDFATYYCQQSNTSPLTFGQGTKVEIKRTVAAPSVFIFPPSDEQLKSGTASVVCLLNNFYPREAKVQWKVDNALQSGNSQESVTEQDSKDSTYSLSSTLTLSKADYEKHKVYACEVTHQGLSSPVTKSFNRGEC
notes: DVD-Ig; N-term VD AB012 (HGF), C-term VD AB071 (VEGF); HC linker short, LC linker short; vectors V1/V2
In the case of B5, the values for the EC50 with VEGF 1-165 aa and in the assay with HGF-His tag were 166 nM and 1.32 nM, respectively.

B6: DVD661 (bispecific antibody, human IgG1, kappa)
heavy: not shown
light: DIQMTQSPSSLSASVGDRVTITCKASENVVSYVSWYQQKPGKAPKLLIYGASNRNTGVPSRFSGSGSGTDFTLTISSLQPEDFATYYCGQSYNYPYTFGQGTKLEIKRTVAAPDIQMTQSPSSLSASVGDRVTITCRASQDVSTAVAWYQQKPGKAPKLLIYSASFLYSGVPSRFSGSGSGTDFTLTISSLQPEDFATYYCQQSYTTPPTFGQGTKVEIKRTVAAPSVFIFPPSDEQLKSGTASVVCLLNNFYPREAKVQWKVDNALQSGNSQESVTEQDSKDSTYSLSSTLTLSKADYEKHKVYACEVTHQGLSSPVTKSFNRGEC
notes: DVD-Ig; HC linker short, LC linker short; vectors V1/V2
Regarding B6, the EC50 with VEGF 1-165 aa worked out at 566 nM; in the assay with HGF-His tag, 0.7 nM.

B7: DVD673 (bispecific antibody, human IgG1, kappa)
heavy: not shown
light: B6 light
notes: DVD-Ig; HC linker long, LC linker short; vectors V1/V2
With B7, the EC50 turned out to be 65.3 nM with VEGF 1-165 aa and 0.4 nM with HGF-His tag.

B8: DVD709 (bispecific antibody, human IgG1, kappa)
heavy: not shown
light: DIQMTQSPSSVSASVGDRVTITCRASQGISSWLAWYQQKPGKAPNLLIYEASSLQSGVPSRFGGSGSGTDFTLTISSLQPEDFATYYCQQANGFPWTFGQGTKVEIKRTVAAPDIQMTQSPSSLSASVGDRVTITCRASQDVSTAVAWYQQKPGKAPKLLIYSASFLYSGVPSRFSGSGSGTDFTLTISSLQPEDFATYYCQQSYTTPPTFGQGTKVEIKRTVAAPSVFIFPPSDEQLKSGTASVVCLLNNFYPREAKVQWKVDNALQSGNSQESVTEQDSKDSTYSLSSTLTLSKADYEKHKVYACEVTHQGLSSPVTKSFNRGEC
notes: as for B6
For B8, the figures for the EC50 with VEGF 1-165 aa and with HGF-His tag were 1370 nM and 0.14 nM, respectively.

B9: DVD669 (bispecific antibody, human IgG1, kappa)
heavy: not shown
light: DIQMTQSPSSLSASVGDRVTITCKASENVVSYVSWYQQKPGKAPKLLIYGASNRNTGVPSRFSGSGSGTDFTLTISSLQPEDFATYYCGQSYNYPYTFGQGTKLEIKRTVAAPSVFIFPPDIQMTQSPSSLSASVGDRVTITCRASQVIRRSLAWYQQKPGKAPKLLIYAASNLASGVPSRFSGSGSGTDFTLTISSLQPEDFATYYCQQSNTSPLTFGQGTKVEIKRTVAAPSVFIFPPSDEQLKSGTASVVCLLNNFYPREAKVQWKVDNALQSGNSQESVTEQDSKDSTYSLSSTLTLSKADYEKHKVYACEVTHQGLSSPVTKSFNRGEC
notes: DVD-Ig; N-term VD AB079 (HGF), C-term VD AB071 (VEGF); HC linker long, LC linker long; vectors V1/V2
Take B9: the EC50 with VEGF 1-165 aa was 1660 nM; with HGF-His tag, 0.29 nM.

B10: DVD681 (bispecific antibody, human IgG1, kappa)
heavy: not shown
light: B9 light
notes: DVD-Ig; N-term VD AB079 (HGF), C-term VD AB071 (VEGF); HC linker short, LC linker long; vectors V1/V2
Consider B10, for which the EC50 amounted to 2160 nM with VEGF 1-165 aa and 0.27 nM with HGF-His tag.

B11: DVD550 (bispecific antibody, human IgG1, kappa)
heavy: not shown
light: DIQMTQSPSSLSASVGDRVTITCSASQDISNYLNWYQQKPGKAPKVLIYFTSSLHSGVPSRFSGSGSGTDFTLTISSLQPEDFATYYCQQYSTVPWTFGQGTKVEIKRTVAAPSVFIFPPAIQMTQSSSSFSVSLGDRVTITCKASEDIYNRFAWYQQKPGNAPRLLISGAASLEAGVPSRFSGSGSGQDYTLSITSLQTEDVATYYCQQYWSTPWTFGGGTKLEIKRTVAAPSVFIFPPSDEQLKSGTASVVCLLNNFYPREAKVQWKVDNALQSGNSQESVTEQDSKDSTYSLSSTLTLSKADYEKHKVYACEVTHQGLSSPVTKSFNRGEC
notes: HC linker long, LC linker long; also called DVD-Ig DVD550
Molecule B11 displayed an EC50 in the assay with PlGF [2] of 146 nM.

B12: DVD553 (bispecific antibody, human IgG1, kappa)
heavy: not shown
light: AIQMTQSSSSFSVSLGDRVTITCKASEDIYNRFAWYQQKPGNAPRLLISGAASLEAGVPSRFSGSGSGQDYTLSITSLQTEDVATYYCQQYWSTPWTFGGGTKLEIKRTVAAPSVFIFPPDIQMTQSPSSLSASVGDRVTITCRASQVIRRSLAWYQQKPGKAPKLLIYAASNLASGVPSRFSGSGSGTDFTLTISSLQPEDFATYYCQQSNTSPLTFGQGTKVEIKRTVAAPSVFIFPPSDEQLKSGTASVVCLLNNFYPREAKVQWKVDNALQSGNSQESVTEQDSKDSTYSLSSTLTLSKADYEKHKVYACEVTHQGLSSPVTKSFNRGEC
notes: outer AB074 (PlGF), inner AB071 (VEGF); HC linker long, LC linker long; also called DVD-Ig DVD553
Regarding B12, the EC50 in the assay with PlGF [1] amounted to 66300 nM.

B13: DVD569 (bispecific antibody, human IgG1, kappa)
heavy: not shown
light: B12 light
notes: outer AB074 (PlGF), inner AB071 (VEGF); HC linker short, LC linker long; also called DVD-Ig DVD569
In the case of B13, the response with PlGF [1] was half-maximal at 88.5 nM (EC50).

B14: DVD545 (bispecific antibody, human IgG1, kappa)
heavy: not shown
light: AIQMTQSSSSFSVSLGDRVTITCKASEDIYNRFAWYQQKPGNAPRLLISGAASLEAGVPSRFSGSGSGQDYTLSITSLQTEDVATYYCQQYWSTPWTFGGGTKLEIKRTVAAPDIQMTQSPSSLSASVGDRVTITCRASQVIRRSLAWYQQKPGKAPKLLIYAASNLASGVPSRFSGSGSGTDFTLTISSLQPEDFATYYCQQSNTSPLTFGQGTKVEIKRTVAAPSVFIFPPSDEQLKSGTASVVCLLNNFYPREAKVQWKVDNALQSGNSQESVTEQDSKDSTYSLSSTLTLSKADYEKHKVYACEVTHQGLSSPVTKSFNRGEC
notes: outer AB074 (PlGF), inner AB071 (VEGF); HC linker short, LC linker short; also called DVD-Ig DVD545
Consider B14, for which the EC50 with PlGF [1] stood at 98.8 nM.
